Experiment [1] concerns the target mScarlet-I-Kif1bα (full-length kinesin) (mouse) (UniProt Q60575). Put plainly: co-IP; N2A cells 48 h after co-transfection of EGFP-MBNL1-41 and mScarlet-Kif plasmids; lysis in 10 mM Tris-HCl pH 7.5, 150 mM NaCl, 0.5 mM EDTA, 0.5% NP-40; RFP-Trap magnetic agarose 1 h at 4 °C; western blot, quantitation normalized to input.
Experiment [2] has as its target mScarlet-I-Kif1c (full-length kinesin) (mouse) (UniProt O35071). The description is as above.
The target in experiment [3] is FLAG-tagged BicD2-Kif1bα tail fusion (mouse) (UniProt Q60575). Put plainly: centrosome recruitment assay with BicD2-kinesin tail fusions (relocalisation in cells, microscopy); N2A cells transfected with FLAG-BicD2-KIF tail fusion and EGFP-tagged RBP (2:3), fixed after 24 h, anti-FLAG staining; read-out log2 of the mean EGFP intensity at the centrosome over the mean intensity in the whole cell.

Experiment [4] addresses FLAG-tagged BicD2-Kif1c tail fusion (mouse) (UniProt O35071). The experiment is described as above.
Experiment [5] has the same target. Described as above. This is another data set of the same source.

Like-named read-outs stand apart in the source and are kept apart here.

Chain of FLAG-tagged BicD2-Kif1c tail fusion (mouse) (O35071 whole entry, the tested form may be a part): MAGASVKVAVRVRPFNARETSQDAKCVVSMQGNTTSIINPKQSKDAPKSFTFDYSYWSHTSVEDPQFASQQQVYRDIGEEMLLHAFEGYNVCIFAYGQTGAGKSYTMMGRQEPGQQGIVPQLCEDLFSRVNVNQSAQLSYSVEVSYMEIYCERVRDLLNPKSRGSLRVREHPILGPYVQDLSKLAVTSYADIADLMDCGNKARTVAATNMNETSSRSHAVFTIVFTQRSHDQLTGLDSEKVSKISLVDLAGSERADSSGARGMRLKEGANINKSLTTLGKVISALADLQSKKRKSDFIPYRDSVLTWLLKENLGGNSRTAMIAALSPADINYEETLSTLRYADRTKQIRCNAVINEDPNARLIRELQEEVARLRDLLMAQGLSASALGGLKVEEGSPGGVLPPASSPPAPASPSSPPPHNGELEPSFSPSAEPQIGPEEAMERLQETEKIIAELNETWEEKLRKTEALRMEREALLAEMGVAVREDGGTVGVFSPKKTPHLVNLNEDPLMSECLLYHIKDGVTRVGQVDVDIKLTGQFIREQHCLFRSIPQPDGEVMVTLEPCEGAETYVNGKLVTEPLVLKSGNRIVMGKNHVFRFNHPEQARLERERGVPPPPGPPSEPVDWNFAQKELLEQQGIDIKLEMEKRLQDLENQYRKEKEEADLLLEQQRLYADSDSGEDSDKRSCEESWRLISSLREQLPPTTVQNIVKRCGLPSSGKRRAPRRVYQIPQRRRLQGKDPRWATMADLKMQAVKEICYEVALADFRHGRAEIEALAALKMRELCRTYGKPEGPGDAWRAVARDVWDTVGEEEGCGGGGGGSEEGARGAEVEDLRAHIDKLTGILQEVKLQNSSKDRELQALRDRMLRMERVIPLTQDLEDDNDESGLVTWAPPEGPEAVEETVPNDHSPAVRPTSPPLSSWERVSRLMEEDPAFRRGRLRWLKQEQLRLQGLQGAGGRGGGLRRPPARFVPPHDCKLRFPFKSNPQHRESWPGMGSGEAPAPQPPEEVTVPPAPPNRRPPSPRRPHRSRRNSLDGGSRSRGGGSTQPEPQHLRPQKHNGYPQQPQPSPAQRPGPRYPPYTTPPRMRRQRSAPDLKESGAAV
Chain of EGFP-MBNL1-41 (41 kDa isoform of MBNL1) (natural protein) (Q9NR56 whole entry, canonical isoform): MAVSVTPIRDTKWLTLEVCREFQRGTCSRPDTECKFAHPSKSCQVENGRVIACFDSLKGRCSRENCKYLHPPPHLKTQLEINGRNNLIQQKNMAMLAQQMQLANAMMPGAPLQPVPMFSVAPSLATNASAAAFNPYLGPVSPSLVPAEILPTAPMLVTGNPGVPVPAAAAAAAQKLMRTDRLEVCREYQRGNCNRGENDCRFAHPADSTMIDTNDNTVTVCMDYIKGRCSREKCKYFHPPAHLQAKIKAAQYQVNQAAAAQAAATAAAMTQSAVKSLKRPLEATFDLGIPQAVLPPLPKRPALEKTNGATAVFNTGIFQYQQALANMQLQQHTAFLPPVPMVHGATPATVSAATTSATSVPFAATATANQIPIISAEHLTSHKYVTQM
Chain of EGFP-Cpsf4 (Q8BQZ5 whole entry): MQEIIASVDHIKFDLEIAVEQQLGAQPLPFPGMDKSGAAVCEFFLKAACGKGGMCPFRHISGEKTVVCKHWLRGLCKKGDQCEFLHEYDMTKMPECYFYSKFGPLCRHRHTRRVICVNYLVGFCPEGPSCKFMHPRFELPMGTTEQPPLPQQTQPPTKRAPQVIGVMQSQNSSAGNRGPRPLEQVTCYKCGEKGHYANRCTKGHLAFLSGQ
Chain of FLAG-tagged BicD2-Kif1bα tail fusion (mouse) (Q60575 other isoform, or with tags, fused parts or gaps): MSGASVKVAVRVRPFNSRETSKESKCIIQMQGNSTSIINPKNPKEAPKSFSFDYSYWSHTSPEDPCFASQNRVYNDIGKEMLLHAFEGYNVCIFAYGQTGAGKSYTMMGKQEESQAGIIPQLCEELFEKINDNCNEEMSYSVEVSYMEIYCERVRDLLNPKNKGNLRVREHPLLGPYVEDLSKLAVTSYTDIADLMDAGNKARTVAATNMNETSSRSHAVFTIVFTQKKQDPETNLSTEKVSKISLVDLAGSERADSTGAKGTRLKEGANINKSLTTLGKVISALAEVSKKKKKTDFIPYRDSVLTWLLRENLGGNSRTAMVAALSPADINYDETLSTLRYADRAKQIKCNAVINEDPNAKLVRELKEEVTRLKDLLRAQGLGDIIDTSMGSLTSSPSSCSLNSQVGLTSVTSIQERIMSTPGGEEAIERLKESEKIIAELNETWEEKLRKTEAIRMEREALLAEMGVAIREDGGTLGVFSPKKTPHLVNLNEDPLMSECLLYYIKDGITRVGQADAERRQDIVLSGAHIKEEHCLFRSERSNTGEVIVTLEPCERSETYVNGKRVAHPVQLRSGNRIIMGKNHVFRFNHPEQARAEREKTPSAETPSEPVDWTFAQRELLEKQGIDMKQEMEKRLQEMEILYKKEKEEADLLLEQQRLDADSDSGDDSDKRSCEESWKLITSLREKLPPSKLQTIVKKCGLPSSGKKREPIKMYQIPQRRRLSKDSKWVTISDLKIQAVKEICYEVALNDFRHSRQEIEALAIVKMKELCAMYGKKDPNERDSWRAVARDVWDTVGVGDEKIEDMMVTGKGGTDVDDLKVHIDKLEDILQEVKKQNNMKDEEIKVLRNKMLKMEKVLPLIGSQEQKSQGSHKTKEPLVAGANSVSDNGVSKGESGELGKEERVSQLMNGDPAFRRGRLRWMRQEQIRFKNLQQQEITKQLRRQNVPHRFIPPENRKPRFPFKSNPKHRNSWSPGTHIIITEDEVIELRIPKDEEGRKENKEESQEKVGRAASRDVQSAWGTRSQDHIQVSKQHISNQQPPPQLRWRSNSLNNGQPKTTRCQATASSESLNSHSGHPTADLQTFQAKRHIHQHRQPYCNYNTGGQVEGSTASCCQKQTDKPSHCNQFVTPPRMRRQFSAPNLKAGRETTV
Chain of mScarlet-I-Kif1c (full-length kinesin) (mouse) (O35071 whole entry, the tested form may be a part): as the sequence (O35071 whole entry, the tested form may be a part) above
Chain of mScarlet-I-Kif1bα (full-length kinesin) (mouse) (Q60575 other isoform, or with tags, fused parts or gaps): as the sequence (Q60575 other isoform, or with tags, fused parts or gaps) above

For the substance “EGFP-MBNL1-41 (41 kDa isoform of MBNL1) (natural protein)”, the fold enrichment of co-precipitated EGFP-MBNL1 as compared to Kif1bβ in experiment [1] and in experiment [2] was 10 fold throughout. Moreover, the log2 mean centrosome enrichment in experiment [3] came out at 0.506 log2; in experiment [4] it was 0.56 log2; in experiment [5], 0.497 log2.
As for “EGFP-Cpsf4 (from UniProt Q8BQZ5 1-211) (natural protein)”, the log2 mean centrosome recruitment in experiment [3] is 1.71 log2; in experiment [4], 1.52 log2.

(Values after article PMC10256740.)
